The values that follow come from PMC11197462 (Structure (London, England : 1993), 2023).

Assay [1] addresses human LAG3, four Ig-like extracellular domains (D1-D4; residues 1-449) (human, UniProt P18627). The experiment in a line: SEC.
For a further assay, the target named is Fab favezelimab(mut). The experiment in a line: SEC. In general terms: Size exclusion chromatography separates by hydrodynamic size, large species first.

human LAG3, four Ig-like extracellular domains (D1-D4; residues 1-449), sequence (P18627 23-449): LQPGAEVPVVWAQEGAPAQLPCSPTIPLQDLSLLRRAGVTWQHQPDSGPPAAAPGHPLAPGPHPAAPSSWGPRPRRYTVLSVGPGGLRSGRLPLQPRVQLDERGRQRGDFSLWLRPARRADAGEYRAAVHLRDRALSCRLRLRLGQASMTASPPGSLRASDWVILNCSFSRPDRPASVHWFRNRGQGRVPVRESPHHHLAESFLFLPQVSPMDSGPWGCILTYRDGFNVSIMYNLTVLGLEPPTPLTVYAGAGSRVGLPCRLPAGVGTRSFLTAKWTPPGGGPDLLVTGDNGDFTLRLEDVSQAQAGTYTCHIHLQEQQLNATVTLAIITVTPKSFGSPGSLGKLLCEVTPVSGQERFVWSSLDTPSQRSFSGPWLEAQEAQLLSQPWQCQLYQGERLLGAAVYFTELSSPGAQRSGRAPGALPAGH

B1: Fab favezelimab(mut) (Fab, V domains shown)
VH: EVLLLQSGPELVKPGTSVKIPCKASGYTFTDYNVDWVKQRHGKGLEWIGDINPNNGGTIYSQKFKGKATLTVDKSSSTAFMELRSLTSEDTAVYFCARNYRWFGAMDHWGQGTSVTVSS
VL: DIVLTQSPASLAVSPGQRATISCKASQSLDYEGDSDMNWYQQKPGQPPRLLISGASNLESGIPARFSGSGSGTDFTVNIHPVEEEDAATYYCQQSTEDPRTFGGGTKLEIK
By stoichiometry N is commonly meant the number of molecules, sites or subunits per partner or assembly. For the molecule B1, the “stoichiometry N” value (in assay [1]; with Fab favezelimab(mut)) was 2 in each case. The percent of the protein in the dimer peak in the assay with Fab favezelimab(mut) came out at 85%.
